Laboratory results as given in patent US20250042957A1 (Molecular Partners, published 2025).

T1: CD3-specific binding domain (SEQ ID NO: 3) (biotinylated when used as immobilized SPR ligand (site not stated))
T1 construct: also called α-CD3 DARPin
T1 chain: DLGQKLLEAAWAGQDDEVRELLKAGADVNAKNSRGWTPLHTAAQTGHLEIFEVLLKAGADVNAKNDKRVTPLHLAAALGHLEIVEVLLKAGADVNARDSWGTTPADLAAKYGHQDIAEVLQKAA

T2: scCD3εγ
T2 chain 1: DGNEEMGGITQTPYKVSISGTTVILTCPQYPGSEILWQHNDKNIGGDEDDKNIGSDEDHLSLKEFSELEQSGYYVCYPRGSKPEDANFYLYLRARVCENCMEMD
T2 chain 2: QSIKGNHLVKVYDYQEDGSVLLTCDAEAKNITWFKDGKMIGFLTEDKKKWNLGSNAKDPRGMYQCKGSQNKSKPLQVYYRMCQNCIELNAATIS


Tests used:
VEGF165 [1] = molecular target: T3, VEGF165 (UniProt P15692-4 27-191, biotinylated in the ELISA of Example 4 (site not stated)); assay: SPR (ProteOn), VEGF165 immobilized, multi-trace 50-0.195 nM, 25 C
T3 construct: also called biotinylated VEGF165; soluble VEGF
T3 sequence (P15692 other isoform, or with tags, fused parts or gaps limits assumed): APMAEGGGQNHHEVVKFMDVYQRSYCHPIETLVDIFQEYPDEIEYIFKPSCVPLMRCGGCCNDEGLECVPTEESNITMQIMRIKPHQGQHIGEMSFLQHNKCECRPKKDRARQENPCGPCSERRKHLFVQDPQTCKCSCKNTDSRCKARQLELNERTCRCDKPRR

[2] = molecular target: T1, CD3-specific binding domain (SEQ ID NO: …); assay: SPR (ProteOn), biotinylated CD3-specific binding domain immobilized, multi-trace 50-0.195 nM, 25 C
[3] = molecular target: T1, CD3-specific binding domain (SEQ ID NO: …); assay: SPR; KD on CD3-specific binding domain (Ligand1) divided by KD on VEGF165 (Ligand2)
scCD3εγ [4] = molecular target: T2, scCD3εγ; assay: SPR, bio-scCD3εγ coated on NAD chip, DARPin 333.33-4.11 nM
scCD3εγ [5] = molecular target: T2, scCD3εγ; assay: ELISA on scCD3εγ, DARPin titrated
VEGF165 [6] = molecular target: T3, VEGF165; assay: ELISA: plate-bound biotinylated VEGF165, His-tagged construct titrated, no soluble VEGF, anti-His-HRP detection
Experimental: Then a titration of the Switchdrug DARPins was applied, incubated and washed. Detection of bound his-tagged constructs was done by anti-RGS(his)4 mAb HRP conjugate, and detected by TMB substrate.

scCD3εγ [7] = molecular target: T2, scCD3εγ; assay: ELISA: plate-bound biotinylated scCD3εγ, His-tagged construct titrated in presence of 100 nM soluble VEGF
Experimental: (§1) The difference in binding of Switchdrug DARPins to scCD3εγ in presence and absence of VEGF was assessed. […] Said Switchdrug DARPins were mixed with a constant concentration of VEGF (100 nM) and tested for binding to scCD3εγ. […] The difference in EC50 of a construct in presence and absence of VEGF can be referred to as the “activation window”.
(§2) Switchdrug DARPins that were mixed with VEGF were titrated and pre-incubated for 1 day with VEGF in order to establish the thermodynamic equilibrium. These samples were loaded on the ELISA plate, incubated and washed, before the bound Switchdrug DARPins were detected as described above.

scCD3εγ [8] = molecular target: T2, scCD3εγ; assay: ELISA: plate-bound biotinylated scCD3εγ, His-tagged construct titrated, no VEGF
Experimental: as §1, §2

scCD3εγ [9] = molecular target: T2, scCD3εγ; assay: ELISA: plate-bound biotinylated scCD3εγ, His-tagged construct titrated without and with 100 nM soluble VEGF
Experimental: as §1, §2

Binder | Kd (VEGF165 [1]) [nM] | kon (VEGF165 [1]) [M⁻¹ s⁻¹] | Kd [2] [nM] | koff [2] [s⁻¹] | kon [2] [M⁻¹ s⁻¹] | KD ratio (Ligand1/Ligand2) [3] | koff (VEGF165 [1]) [s⁻¹] | Kd (scCD3εγ [4]) [nM] | EC50 (read off the curve) (scCD3εγ [5]) [nM] | EC50 (read off the curve) (VEGF165 [6]) [nM] | EC50 (read off the curve) (scCD3εγ [7]) [nM] | EC50 (read off the curve) (scCD3εγ [8]) [nM] | shift in EC50 upon addition of 100 nM VEGF (scCD3εγ [9]) [fold]
2-in-1 DARPin 20 (SEQ ID NO: 13) (designed binder, N4C mono-domain; purified by its His-tag) DLDKKLLEAARAGQDDEVRILLKAGADVNAKDSTGWTPLHLAAPWGHPEIVEVLLKAGADVNAKDFQGWTPLHLAAAAGHLEIVEVLLKAGADVNAKDVYGWTPLHLAAAAGHLEIVEVLLKAGADVNAKDWLGWTPLHLAASHGHLEIVEVLLKAGADVNAQDKSGKTPADLAARAGHQDIAEVLQKAA | 0.69 | 1.29e+06 | 1.44 | 0.0005 | 350000 | 2.09 | – | – | – | – | – | – | –
2-in-1 DARPin 18 (SEQ ID NO: 11) (designed binder, N4C mono-domain; purified by its His-tag) DLDKKLLEAARAGQDDEVRILLKAGADVNAKDSTGWTPLHLAAPWGHPEIVEVLLKAGADVNAKDFQGWTPLHLAAAAGHLEIVEVLLKAGADVNAKDVYGWTPLHIAAASGHLEIVEVLLKAGADVNAKDWLGWTPLHLAASHGHLEIVEVLLKAGADVNAQDKSGKTPADLAARAGHQDIAEVLQKAA | 0.1 | 1.16e+06 | 1.7 | 0.00087 | 514000 | 17 | 0.00012 | – | – | – | – | – | –
2-in-1 DARPin 25 (SEQ ID NO: 94) (designed binder, Family 2, from Parent nos 3 and 4; tag not specified) DLGKKLLQAARAGQLDEVRELLKAGADVNAKDSQGRTPLHLAAFAGHLEIVEVLLKAGADVNAKDHAGWTPLHLAAYAGHLEIVEVLVKAGADVNAKDTEGKTPLHIAAWFGHLEIVEVLLKAGADVNAKDKSGKTPLHLAARAGHLEIVEVLLKAGADVNAKDNSGQTPLHLAAWAGHLEIVEVLLKAGADVNAKNSRGWTPLHTAAQTGHLEIFEVLLKAGADVNAKNDKRVTPLHLAAALGHLEIVEVLLKAGADVNARDSWGTTPADLAAKYGHQDIAEVLQKAA | – | – | – | – | – | – | – | 4.05 | ~10 | – | – | – | –
2-in-1 DARPin 12 (SEQ ID NO: 7) (designed binder, N3C mono-domain; purified by its His-tag) DLDKKLLEAARAGQDDEVRILLKAGADVNAKDSTGWTPLHLAAPWGHPEIVEVLLKAGADVNAKDVYGWTPLHLAAAAGHLEIVEVLLKAGADVNAKDWLGWTPLHLAASHGHLEIVEVLLKAGADVNAQDKSGKTPADLAARAGHQDIAEVLQKAA | 6.66 | 1.59e+06 | 1.3 | 0.00081 | 624000 | 0.195 | 0.0106 | – | – | – | – | – | –
2-in-1 DARPin 11 (SEQ ID NO: 6) (designed binder, N3C mono-domain; purified by its His-tag) DLDKKLLEAARAGQDDEVRILLKAGADVNAKDSTGWTPLHLAAPWGHPEIVEVLLKAGADVNAKDVYGWTPLHIAAASGHLEIVEVLLKAGADVNAKDWLGWTPLHLAASHGHLEIVEVLLKAGADVNAQDKSGKTPADLAARAGHQDIAEVLQKAA | 11.1 | 1.38e+06 | 0.96 | 0.00067 | 691000 | 0.0865 | 0.0153 | – | – | – | – | – | –
Switchdrug DARPin 15-B (designed binder, also called 2-in-1 DARPin15 in Format B) MRGSHHHHHHGSDLDKKLLEAARAGQDDEVRILLKAGADVNAKDSTGWTPLHLAAPWGHPEIVEVLLKAGADVNAKDFQGWTPLHLAAAAGHLEIVEVLLKAGADVNAKDWLGWTPLHLAASHGHLEIVEVLLKAGADVNAQDKSGKTPADLAARAGHQDIAEVLQKAAGSPTPTPTTPTPTPTTPTPTPTGSDLGKKLLQAARAGQLDEVRELLKAGADVNAKDQYGRTPLHLAAIKGHLEIVEVLLKAGADVNAKDSLGYTPLHLAAVEGPLEIVEVLLKAGADVNAKDAYGQTPLHIAAAWGHLEIVEVLLKAVADVNAQDKSGKTPADLAARAGHQDIAEVLQKAAGSPTPTPTTPTPTPTTPTPTPTGSDLGQKLLEAAWAGQDDEVRELLKAGADVNAKNSRGWTPLHTAAQTGHLEIFEVLLKAGADVNAKNDKRVTPLHLAAALGHLEIVEVLLKAGADVNARDSWGTTPADLAAKYGHQDIAEVLQKAA | – | – | – | – | – | – | – | – | – | ~10 | – | – | –

More lines, now with the values ahead:

Kd (VEGF165 [1]) [nM] | kon (VEGF165 [1]) [M⁻¹ s⁻¹] | Kd [2] [nM] | koff [2] [s⁻¹] | kon [2] [M⁻¹ s⁻¹] | KD ratio (Ligand1/Ligand2) [3] | koff (VEGF165 [1]) [s⁻¹] | Kd (scCD3εγ [4]) [nM] | EC50 (read off the curve) (scCD3εγ [5]) [nM] | EC50 (read off the curve) (VEGF165 [6]) [nM] | EC50 (read off the curve) (scCD3εγ [7]) [nM] | EC50 (read off the curve) (scCD3εγ [8]) [nM] | shift in EC50 upon addition of 100 nM VEGF (scCD3εγ [9]) [fold] | Binder
68.5 | 1.38e+06 | 0.44 | 0.0002 | 450000 | 0.00647 | 0.0949 | – | – | – | – | – | – | 2-in-1 DARPin 19 (SEQ ID NO: 12) (designed binder, N4C mono-domain; purified by its His-tag) DLDKKLLEAARAGQDDEVRILLKAGADVNAKDSTGWTPLHLAAPWGHPEIVEVLLKAGADVNAKDFKGWTPLHLAAAAGHLEIVEVLLKAGADVNAKDVYGWTPLHLAAAAGHLEIVEVLLKAGADVNAKDWLGWTPLHLAASHGHLEIVEVLLKAGADVNAQDKSGKTPADLAARAGHQDIAEVLQKAA
– | – | – | – | – | – | – | 3.81 | ~30 | – | – | – | – | 2-in-1 DARPin 23 (SEQ ID NO: 92) (designed binder, Family 2, from Parent nos 3 and 4; tag not specified) DLGKKLLQAARAGQLDEVRELLKAGADVNAKDSQGRTPLHLAAFAGHLEIVEVLLKAGADVNAKDHAGWTPLHLAAYAGHLEIVEVLVKAGADVNAKDTEGKTPLHIAAWFGHLEIVEVLLKAGADVNAKDKSGQTPLHLAAWAGHLEIVEVLLKAGADVNAKNSRGWTPLHTAAQTGHLEIFEVLLKAGADVNAKNDKRVTPLHLAAALGHLEIVEVLLKAGADVNARDSWGTTPADLAAKYGHQDIAEVLQKAA
– | – | – | – | – | – | – | 4.67 | ~10 | – | – | – | – | 2-in-1 DARPin 24 (SEQ ID NO: 93) (designed binder, Family 2, from Parent nos 3 and 4; tag not specified) DLGKKLLQAARAGQLDEVRELLKAGADVNAKDSQGRTPLHLAAFAGHLEIVEVLLKAGADVNAKDHAGWTPLHLAAYAGHLEIVEVLVKAGADVNAKDTEGKTPLHIAAWFGHLEIVEVLLKAGADVNAKDKSGKTPLHLAARAGHLEIVEVLLKAGADVNAKDNSGQTPLHEAAWAGHLEIVEVLLKAGADVNAKNSRGWTPLHTAAQTGHLEIFEVLLKAGADVNAKNDKRVTPLHLAAALGHLEIVEVLLKAGADVNARDSWGTTPADLAAKYGHQDIAEVLQKAA
0.02 | 4.11e+06 | 1360 | 0.205 | 151000 | 59100 | 0.0001 | – | – | – | – | – | – | 2-in-1 DARPin 15 (SEQ ID NO: 9) (designed binder, N3C mono-domain; purified by its His-tag) DLDKKLLEAARAGQDDEVRILLKAGADVNAKDSTGWTPLHLAAPWGHPEIVEVLLKAGADVNAKDFQGWTPLHLAAAAGHLEIVEVLLKAGADVNAKDWLGWTPLHLAASHGHLEIVEVLLKAGADVNAQDKSGKTPADLAARAGHQDIAEVLQKAA
0.18 | 4.63e+06 | 392 | – | – | 2180 | 0.00085 | – | – | – | – | – | – | 2-in-1 DARPin 17 (SEQ ID NO: 10) (designed binder, N3C mono-domain; purified by its His-tag) DLGKKLLQAARAGQLDEVRELLKAGADVNAKDSTGWTPLHLAAPWGHPEIVEVLLKAGADVNAKDFQGWTPLHLAAAAGHLEIVEVLLKAGADVNAKDWLGWTPLHLAASHGHLEIVEVLLKAGADVNAQDKSGKTPADLAARAGHQDIAEVLQKAA
0.81 | 3.29e+06 | 11.5 | 0.008 | 693000 | 14.2 | 0.00268 | – | – | – | – | – | – | 2-in-1 DARPin 13 (SEQ ID NO: 8) (designed binder, N3C mono-domain; purified by its His-tag) DLDKKLLEAARAGQDDEVRILLKAGADVNAKDSTGWTPLHLAAPWGHPEIVEVLLKAGADVNAKDFYGWTPLHLAAAAGHLEIVEVLLKAGADVNAKDWLGWTPLHLAASHGHLEIVEVLLKAGADVNAQDKSGKTPADLAARAGHQDIAEVLQKAA
– | – | – | – | – | – | – | – | – | ~20 | – | – | – | Switchdrug DARPin 15-A (designed binder, also called 2-in-1 DARPin15 in Format A) MRGSHHHHHHGSDLGKKLLQAARAGQLDEVRELLKAGADVNAKDQYGRTPLHLAAIKGHLEIVEVLLKAGADVNAKDSLGYTPLHLAAVEGPLEIVEVLLKAGADVNAKDAYGQTPLHIAAAWGHLEIVEVLLKAVADVNAQDKSGKTPADLAARAGHQDIAEVLQKAAGSPTPTPTTPTPTPTTPTPTPTGSDLGQKLLEAAWAGQDDEVRELLKAGADVNAKNSRGWTPLHTAAQTGHLEIFEVLLKAGADVNAKNDKRVTPLHLAAALGHLEIVEVLLKAGADVNARDSWGTTPADLAAKYGHQDIAEVLQKAAGSPTPTPTTPTPTPTTPTPTPTGSDLDKKLLEAARAGQDDEVRILLKAGADVNAKDSTGWTPLHLAAPWGHPEIVEVLLKAGADVNAKDFQGWTPLHLAAAAGHLEIVEVLLKAGADVNAKDWLGWTPLHLAASHGHLEIVEVLLKAGADVNAQDKSGKTPADLAARAGHQDIAEVLQKAA
– | – | – | – | – | – | – | – | – | – | ~3 | ~50 | ~18 | Switchdrug DARPin 15-1 (designed binder, also called 2-in-1 DARPin15 in Format 1) MRGSHHHHHHGSDLGQKLLEAAWAGQDDEVRELLKAGADVNAKNSRGWTPLHTAAQTGHLEIFEVLLKAGADVNAKNDKRVTPLHLAAALGHLEIVEVLLKAGADVNARDSWGTTPADLAAKYGHQDIAEVLQKAAGSPTPTPTTPTPTPTTPTPTPTGSDLDKKLLEAARAGQDDEVRILLKAGADVNAKDSTGWTPLHLAAPWGHPEIVEVLLKAGADVNAKDFQGWTPLHLAAAAGHLEIVEVLLKAGADVNAKDWLGWTPLHLAASHGHLEIVEVLLKAGADVNAQDKSGKTPADLAARAGHQDIAEVLQKAA
